Assay results: patent publication US20200181255A1 (Amgen, published 2020)
Where a chain is given by its changes, count along the chain named.

B1: Antibody L (antibody, V domains shown)
VH: QVQLVESGGGVVQPGRSLRLSCAASGFTFSSYAMHWVRQAPGKGLEWLSVISHDGSIKYYADSVKGRFTISRDNSKNTLYLQMNSLRAEDTAVYYCARERTTLSGSYFDYWGQGTLVTVSS
VL: QAVLTQPSSLSASPGASASLTCTLRSGINVGTYRIYWYQQKPGSPPQYLLRYKSDSDKQQGSGVPSRFSGSKDASANAGILLISGLQSEDEADYYCMIWHSSASVFGGGTKLTVL
notes: also called VH4/VL4
B2: Antibody G (antibody, V domains shown)
VH: QVQLQESGPRLVKPSETLSLTCTVSGDSISSYFWSWIRQPPGKGLEWLGYIYYSGSTNYNPSLKSRVTISIDTSKNQFSLKLSSVTAADTAVYYCTRDRGSYYGSDYWGQGTLVTVSS
VL: DIQMTQSPSSVSASVGDRVTITCRAGQVISSWLAWYQQKPGKAPKLLIYAASSLQSGVPSRFSGSGSGTDFTLTISSLQPDDFATYYCQQATSFPLTFGGGTKVEIK
notes: also called VH12/VL12
B3: Antibody B (antibody, V domains shown)
VH: QVQLQESGPGLVKPSQTLSLTCTVSGGSISSGGYYWSWIRQHPGKGLEWIGHIHYSGNTYYNPSLKSRVTISVDTSKNQFSLKLSSVTAADTAVYYCAKNRGFYYGMDVWGQGTTVTVSS
VL: B2 VL with G26S, K45S, G66V, D81E, T92N, L96F, G100P, E105D, I106F
notes: also called VH9/VL9
B4: Antibody C (antibody, V domains shown)
VH: B3 VH with S30N, H52Y, H54Y, N58S, T59S, K77Q, K99R, N100D, F103H
VL: B2 VL with G26S, V28G, I29S, L33F, D81E, T92N, L96F, G100P, E105D
notes: also called VH10/VL10
B5: Antibody J (antibody, V domains shown)
VH: B1 VH with A33G, L48V, S49A, H53F, I57L
VL: B1 VL
B6: Antibody K (antibody, V domains shown)
VH: EVQLVESGGGLVQPGGSLRLSCVVSGFTFSSFSMNWVRQAPGKGLEWVSYISSRSSTIYYADSVKGRFTISRDNAKNSLYLQMNSLRDEDTAVYYCARRIAAAGPWGYYYAMDVWGQGTTVTVSS
VL: QPELTQPPSASASLGASVTLTCTLSSGYSDYKVDWYQLRPGKGPRFVMRVGTGGTVGSKGEGIPDRFSVLGSGLNRSLTIKNIQEEDESDYHCGADHGSGSNFVYVFGTGTKVTVL
B7: Antibody N (antibody, V domains shown)
VH: B6 VH with V23A, V24A, S31T, F32Y, R54S, I58R, Y60H
VL: B6 VL with E3V, L38Q, T55I, S77Y, S101N
B8: Antibody M (antibody, V domains shown)
VH: B6 VH with V23A, V24A, F32Y, Y60I, P105G, W106F, G107H, M112L
VL: B6 VL with E3V, S25N, L38Q, T55I, E61D, S77Y
B9: Antibody E (antibody, V domains shown)
VH: QVQLVESGGGVVQPGRSLRLSCAASGFTFSSYGMHWVRQAPGKGLEWVAVIWYDGSNEYYADSVKGRFTISRDNSKNTLYLQMNSLRAEDTAVYYCARDRGYTSSWYPDAFDIWGQGTMVTVSS
VL: QSVLTQPPSVSGAPGQRVTISCTGSSSNTGAGYDVHWYQQVPGTAPKLLIYGSGNRPSGVPDRFSGSKSGTSASLAITGLQAEDEADYYCQSYDSSLSGWVFGGGTRLTVL
B10: Antibody I (antibody, V domains shown)
VH: QVQLQESGPGLVKPSETLSLTCTVSGGSISTYYWSWIRQPAGKGLEWIGLIYTSGSTNYNPSLKSRVTMSLDTSKNQFSLRLTSVTAADTAVYYCARDRGYYYGVDVWGQGTTVTVSS
VL: B2 VL with M4L, Q6P, G26S, V28G, S30A, S31G, D81E, T92D, L96P
B11: Antibody A (antibody, V domains shown)
VH: B3 VH with H52Y, H54Y, N58S, I71M
VL: DIQLTQSPSSVSASVGDRVTITCRASQVISSWFAWYQQKPGKAPNLLIYAASSLQSGVPSRFSGSGSGTDFTLTISSLQPADFATYFCQQANSFPFTFGPGTKVDVK
B12: Antibody H (antibody, V domains shown)
VH: B3 VH with S37T, H52Y, H54Y, V69I, K83S, K99R, F103Y
VL: B11 VL with L4M, V28G, I29F, S31G, F33L, N45K, A81E, F87Y, V106I

The binders below were run against T1, recombinant human IL-23 (human, UniProt Q9NPF7 20-189; P29460 23-328) (assay: KinExA).
T1 construct: also called rhuIL-23; recombinant human (rhu) IL-23
T1 sequence 1: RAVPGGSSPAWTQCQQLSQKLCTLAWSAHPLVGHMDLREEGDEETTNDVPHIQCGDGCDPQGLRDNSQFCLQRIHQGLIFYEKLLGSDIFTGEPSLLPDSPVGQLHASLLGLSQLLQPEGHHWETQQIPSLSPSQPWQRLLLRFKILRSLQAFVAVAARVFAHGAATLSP
T1 sequence 2: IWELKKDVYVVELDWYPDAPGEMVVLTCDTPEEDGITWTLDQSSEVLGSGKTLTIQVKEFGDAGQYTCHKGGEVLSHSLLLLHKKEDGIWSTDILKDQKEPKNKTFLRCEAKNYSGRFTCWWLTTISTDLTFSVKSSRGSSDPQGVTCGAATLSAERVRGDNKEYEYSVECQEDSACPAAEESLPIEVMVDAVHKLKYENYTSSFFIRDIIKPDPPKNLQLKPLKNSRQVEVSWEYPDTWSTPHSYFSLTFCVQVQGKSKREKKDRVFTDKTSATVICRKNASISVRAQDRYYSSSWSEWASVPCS

| Binder | kon |
| --- | --- |
| B1 | 3.34e+06 M⁻¹ s⁻¹ |
| B2 | 400000 M⁻¹ s⁻¹ |
| B3 | 1.17e+06 M⁻¹ s⁻¹ |
| B4 | 1.36e+06 M⁻¹ s⁻¹ |

These binders were tested against T1, recombinant human IL-23 (assay: KinExA, derived from KD=Koff/Kon).

| Binder | koff |
| --- | --- |
| B1 | 3.7e-06 s⁻¹ |
| B2 | 8.1e-07 s⁻¹ |
| B3 | 4.7e-06 s⁻¹ |
| B4 | 4.1e-06 s⁻¹ |

The binders below were run against T2, Native human IL-23 (human, UniProt Q9NPF7 20-189; P29460 23-328) (assay: cell-based or functional assay).
T2 sequence 1: T1 sequence 1
T2 sequence 2: T1 sequence 2

| Binder | IC50 (pM), STAT-luciferase assay |
| --- | --- |
| B5 | 83 pM |
| B1 | 113 pM |
| B6 | 71 pM |
| B7 | 361 pM |
| B8 | 34 pM |
| B9 | 140 pM |
| B2 | 156 pM |
| B10 | 208 pM |
| B11 | 114 pM |
| B3 | 45 pM |
| B12 | 192 pM |
| B4 | 107 pM |

Target: T3, recombinant cynomolgous IL-23 (cynomolgous)
T3 chain 1: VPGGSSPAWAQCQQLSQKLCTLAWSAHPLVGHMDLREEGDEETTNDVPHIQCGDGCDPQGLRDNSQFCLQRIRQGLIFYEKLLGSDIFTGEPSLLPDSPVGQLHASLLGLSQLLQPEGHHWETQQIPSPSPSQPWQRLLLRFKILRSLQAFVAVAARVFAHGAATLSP
T3 chain 2: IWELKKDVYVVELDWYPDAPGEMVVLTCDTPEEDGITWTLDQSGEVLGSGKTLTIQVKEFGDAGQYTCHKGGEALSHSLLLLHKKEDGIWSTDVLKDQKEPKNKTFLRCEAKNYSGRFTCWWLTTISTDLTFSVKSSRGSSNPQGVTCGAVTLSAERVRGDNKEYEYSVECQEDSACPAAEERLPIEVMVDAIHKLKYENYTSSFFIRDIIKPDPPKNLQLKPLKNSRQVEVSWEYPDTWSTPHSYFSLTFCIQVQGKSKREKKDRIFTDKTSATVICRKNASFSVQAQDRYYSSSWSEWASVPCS
Experiment: cell-based or functional assay

| Binder | IC50 (pM), STAT-luciferase assay |
| --- | --- |
| B5 | 56 pM |
| B1 | 47 pM |
| B6 | 61 pM |
| B7 | 238 pM |
| B8 | 56 pM |
| B9 | 188 pM |
| B2 | 421 pM |
| B10 | 650 pM |
| B11 | 379 pM |
| B3 | 130 pM |
| B12 | 1024 pM |
| B4 | 376 pM |

What follows are binders tested against T1, recombinant human IL-23 (assay: cell-based or functional assay).

| Binder | IC50 (pM), STAT-luciferase assay |
| --- | --- |
| B5 | 36 pM |
| B1 | 23 pM |
| B6 | 43 pM |
| B7 | 145 pM |
| B8 | 40 pM |
| B2 | 296 pM |
| B10 | 338 pM |
| B11 | 190 pM |
| B3 | 100 pM |
| B12 | 253 pM |
| B4 | 211 pM |

These binders were tested against T1, recombinant human IL-23 (assay: KinExA, solution equilibrium, rhuIL-23-coated beads).
Experimental: Normal human serum (NHS)-activated Sepharose 4 fast flow beads (Amersham Biosciences, part of GE Healthcare, Uppsala, Sweden), are pre-coated with rhuIL-23 and blocked with 1 m Tris buffer with 10 mg/mL BSA. 50 pM of IL-23 antibody is incubated with rhuIL-23 (12 points of 1:2 dilutions starting from 800 pM) at room temperature for 72 hours before it is run through the rhuIL-23-coated Sepharose beads. The amount of the bead-bound antibody was quantified by fluorescent (Cy5) labeled goat anti-human-Fc antibody (Jackson Immuno Research, West Grove, Pa.). The binding signal is proportional to the amount of free antibody at equilibrium.

| Binder | Kd |
| --- | --- |
| B1 | 1.08 pM |
| B2 | 2 pM |
| B3 | 3.99 pM |
| B4 | 2.56 pM |

Target: T3, recombinant cynomolgous IL-23
Experiment: cell-based or functional assay
Remark: another data set of the same source

| Binder | IC50 (pM), IL-22 human whole blood assay |
| --- | --- |
| B9 | 56 pM |
| B2 | 66 pM |
| B3 | 113 pM |

Target: T1, recombinant human IL-23
Experiment: cell-based or functional assay
Remark: another data set of the same source

| Binder | IC50 (pM), IL-22 human whole blood assay |
| --- | --- |
| B2 | 83 pM |
| B3 | 117 pM |

Target: T2, Native human IL-23
Experiment: cell-based or functional assay
Remark: another data set of the same source

| Binder | IC50 (pM), NK cell assay (IFNγ) |
| --- | --- |
| B9 | 158 pM |
| B2 | 152 pM |
| B3 | 85 pM |

Target: T3, recombinant cynomolgous IL-23
Experiment: cell-based or functional assay
Remark: another data set of the same source

| Binder | IC50 (pM), NK cell assay (IFNγ) |
| --- | --- |
| B5 | 5 pM |
| B1 | 4 pM |
| B6 | 8 pM |
| B8 | 12 pM |
| B9 | 21 pM |
| B2 | 23 pM |
| B10 | 52 pM |
| B11 | 31 pM |
| B3 | 19 pM |
| B12 | 33 pM |
| B4 | 29 pM |

Target: T1, recombinant human IL-23
Experiment: cell-based or functional assay
Remark: another data set of the same source

| Binder | IC50 (pM), NK cell assay (IFNγ) |
| --- | --- |
| B5 | 4 pM |
| B1 | 3 pM |
| B6 | 7 pM |
| B8 | 8 pM |
| B2 | 45 pM |
| B10 | 69 pM |
| B11 | 42 pM |
| B3 | 48 pM |
| B12 | 29 pM |
| B4 | 32 pM |

Target: T3, recombinant cynomolgous IL-23
Experiment: cell-based or functional assay
Remark: another data set of the same source

| Binder | IC50 (pM), IFNγ human whole blood assay |
| --- | --- |
| B9 | 54 pM |
| B2 | 93 pM |
| B3 | 161 pM |
| B4 | 186 pM |

Target: T1, recombinant human IL-23
Experiment: cell-based or functional assay
Remark: another data set of the same source

| Binder | IC50 (pM), IFNγ human whole blood assay |
| --- | --- |
| B2 | 53 pM |
| B3 | 117 pM |
| B4 | 97 pM |
